Reference: the DeepSol protein solubility set

test: soluble on expression in E. coli; label from the status in PepcDB or PDB records

Row | Sequence | soluble on expression in E. coli
1 | MGSDKIHHHHHHMTTNNASPEAGHIMQTRTVDLDGQVLRVGIRPGSGDLPPLLMFNGIGANLELVEPFVDALPDVEVIIFDIPGAGGSPAPLFPYRFSNLCVMADKLLSHLGYAGPVDTLGVSWGGALAQEFARLYPQRCRRLVLAATSPGVLMVPGSPSVLTKMIGIRRYTDAEYLRRVGGDIYGGAFRDDPSLLDVHGGHMRPPRGRGYLYQLLAAWGWSSLPWLRALKQRTLVLHGSDDPIVPLINAKILSGCIPDSALHVFHDDGHLFLLTAARESARVVGEFLREGR | not soluble
2 | NTDYYGLDYALSFNQVEIEEKRIVIAGSGGIARTVIRYMLDHGAHRVDVLTRNAQNARRNLDIPGIGLHENIDEDYDIYVNCTPLGTLGDGDPFSTVDFRSGRTGIDLVYNPPDTPFLKRMRNAGGRTVSGLDVFIGQGLRTLELVFGIRPDSIFREYAVEALNEIR | not soluble
3 | MGHHHHHHSHMYSEIQRERADIGGLMARPEYREWNPELIKPKKLLNPVKASRSHQELHRELLMNHRRGLGVDSKPELQRVLEHRRRNQLIKKKKEELEAKRLQCPFEQELLRRQQRLNQLEKPPEKEEDHAPEFIKVRENLRRIATLTSEEREL | not soluble
4 | MSLSDAFLSSIKNRRTIYALDKQLPVSQEKIVELVKEAVSHSPSAFNSQSSRVVVLFGAEHEQFWNIAKDELKKIVPADAFAATETKLNSFAAGAGTVLFFEDQTVVRQLQEQFALYADNFPVWSEQASGMAQFAVWTALAEHKVGASLQHYNPLVDAQTHKTWNLPESWKLRAQMPFGAIAAPAGEKAFIAESERFKVFGNEGGSHHHHHH | soluble
5 | MQSQRAYELIKAEIFKRLGVNRTDAYKDSYLQRRIRARMRKLGISDYMEYYKILKSNKEEFEELLLTIAINVTEFFRDPIVWKTFQNKILPELVQFKKSKGFRSIKIWSAACSTGQEPYSIAMTLYEVLGENLGGFRVSILATDIDKEALQIAMRGEYPVDAVEKQVPRHMIYKYFDRISEERYRIKPHVKRLVTFRWFNLLSSIYPKGFDVIFIRNVLIYMSKEAQEDIFRKLYDSLEDHGYLILGKTETILGRSANLFKLYDLVAKVYKKNLGVKGNG | soluble
6 | MASSSSLSLSFPSSSLSRTWDYDVFPSFHGEDVRKAFLSQILKKEFGRKAINFFVDHEMERGEFIGPVLKQAIKGSKIALVLLSKNYASSWCCLDELVEIMKKESGQTVITIFYEVDPNEVKKQTGDFGKAFKETCQGKTEEKVQTWRKALEGVGLATIAGFHSSNWFVFFI | not soluble
7 | RYRAHCDAIALCAPMFGIIIRLPDWMVRHILDWAEGHQRIREEYAIGTGRWRALPFAVNVLTHSRQRYRRNLRFYADEPRLQVGGPTWHWVREGMLAGDEVLANVEKDTAPTLLLQAEEERVVDNLMHDRYCELRAAAGHPCEGGKPLVIEGAYHEILFEKDAMRSVALNAIVEFFNRHT | not soluble
8 | MAREKVSLTEFNLFSEGILEQGSSVRALEWAPIVPFADRAGFEQESRKALKKDFAIIELLANGNTIPAQSRTQYAPLYYIYPQYNNQEALGLDVYSNPTHILSMQVVVNSKAVIASAPITLVQDELAKPGMLFSKAVFLPPEVNELASNEAQQKLSIIKEGKLLGFVVAVAQFDSFFEQLAQQKEQEVSFFIQDVSGSQPLSLFGQAFPTVNRHVDTITIEVFSRLWQIDIALEHHHHHH | not soluble
9 | GSHMASMFGKLREKLKSFVKRVEEEVEKEEEEVEKKGLLDRILTVEIKEKDVDKALDELEIDLLEADVALEVVDALREKIKQKLVGKKVRIGTDKGKIIEEAVKEAVSEILETSRRIDLIEEIRKAEKPYVIMFVGFNGSGKTTTIAKLANWLKNHGFSVVIAASDTFRAGAIEQLEEHAKRIGVKVIKHSYGADPAAVAYDAIQHAKARGIDVVLIDTAGRSETNRNLMDEMKKIARVTKPNLVIFVGDALAGNAIVEQARQFNEAVKIDGIILTKLDADARGGAALSISYVIDAPILFVGVGQGYDDLRPFEKEWFLERIFGEENA | soluble
10 | MGSDKIHHHHHHMSLSAEQIVEYRAFAEQLADAAAAAIAPYFRASLDVEDKGGRLYDPVTVADKAAEDAMRELIQARYPEHGILGEEAGIAVGSSPLTWVLDPIDGTRAFITGLPLWGTLIALNDGARPVLGVMNQPFTGERFVGTPAGAWRSGTPLKTRACADLSAATLMCTTPDMFDTAERKAAFEAVAGKARLMRYGGDCYAYCMLASGFVDVIVEASLQPYDVQALMPIIEGAGGVITAWDGSSAQDGGCVVACGDPVLHAQVLEMLRHAM | not soluble
11 | MRLWRICFKDPEPFIELYFHKVFREDYTLLQYSETGEAVAHLQMLPYQLRIFGTSFSAGYISGACTHPDHRGKGIMRTMMAEALSAIYDRGDICSFLIPAETWLYDFYSRSGGYAPAFGRKQFLYRPNSIPQKFPSGYACTIGQGDYSFLSAEEHTDIRLAVQHTLGQWQTALKDFSLAGGNVAMLQDSAGKTVSQACFVPRENSLDIKLLVGDAEATFILVDHLLRSLDCDHASILAHSGSAPYGMLRILRPIPILEAFAQYHPAEGYSFAYSDPLFSQHNGTYHISKGRIVFSNNVQPENSLLPHHTPDSLVKDLFSPFPSALFLMLD | not soluble
12 | MSLYIDGTFSYSLYRKICTDRSAVNKASNTQESSVAKPSIIKTSENPLQTIEVEVYDEYGEKLVKSIACERPLTVLLNWKEIVTLMTLGSRPEALVLGYLKNQSFISDPEALDSIIIDWETHSAAVVTRENIDHLEPALKKKTVTSGCGQGTMYGNVMKQLEHYQVPQQPIKQSQIYAALEALTHYNDTYKKAGAVHGCAICQEDRVLSFVEDVGRHNAVDTLAGEMWLNGMRGDDKIFYTTGRLTSEMVIKVAQMGIPVLLSRSGVTQMGLELAQRFGITTIARASGRRFHVYSGADKMVFDVKGHSEEAEGHHHHHH | soluble
13 | AIASKREDEGCARKRRTEAGQRSEDCMNPNSVVISAFKVFQQELDTRYDKYERLVKISRDVTIESKRTIFLLHRVASVPDVEEILNEAEVKLDGVRQKIGQIAEELRGEDLHQFHRAFTPGIQEYVEAVSFHHFIRHRSLISLEEINARLVFIRDNNKAVGEGTFSSPCVLTFQITPTDYLLGVADLTGELMRMCISSVGNGDMDTPFQLSGFLRQIHDGFSLIGNTGPYEVSKKLHALRQSLGKVEDACYTLRVRGSEIPKHMLADVFSSRAAHIDPDDAMA | soluble
14 | MAELSDQEMLRYNRQIILRGFDFEGQEALKDARVLVVGLGGLGCAATQYLAGAGVGQLTLLDFDTVSVSNLQRQTLHSDATVGQPKVESARDALARINPHITITPVNARLDDDAMTSLIAGHSLVLDCTDNVSVRNQLNAGCYTAKVPLISGAAIRMEGQVTVFTYRENEPCYRCLSRLFGENALTCVEAGVMAPLIGVIGSLQAMEAIKLLAHYGQPASGKIVMYDAMTCQFREMKLMRNPGCEVCGQ | not soluble
15 | MLRSQAKNVDLTSQADSRHQQKRKQAEQLDALKNPSEPAAKKQHSKGLTELRAHISGFKIDSAKRDPLGKSRTSRRDVENLPPQKSRYVDPCPHYDYDLEEAGNPDSISDYAQGIFDYYRHREVHFRVRKYLHKHPEVDVKTRAILIDWMVEIQETFELNHETLYNAVKLTDMYLCKTKNVDKNTIQKLACVAIFIAAKYDERSPPLVDDLIYLSGDRFSRDELLAMERELFATVGYDLGSPLSYRYLRRFGRVCRVDMKTLTMGRFILETSLMVYEYAMVSQSRLAAAAFVLAMRMLDKNNEYEWNPVLEKYSGFTGEEVMPLVEHMNHILHFSKDKWAQLTSVRQKYSHEVFFHVASIPMLPDTLKVVDSHTYAPVPMLSYP | not soluble
16 | MGSDKIHHHHHHMDAILECCAGLDVHQETVVACILFGSLESKPKKTIRTFSTTTSDLLALTDWLEEEKCSHVAMESTGVYWKPVWNILEAGSFQLSLANAQRIKNLPGRKTDVKDAEWIAQLLRSGLIQGSFVPPAEIRDLRDLTRYRKKLLQDATQEKNRIHKILQDANIKITTYISDIFGVSGRNIMESLMDGEVITVEKLNQMVKGKVKSKIPGLADALNHRLRSHHRDMIRYSWSHLKFLEQSLINVEQKISECMAPYQQEVELLTSIPGINQTSSAIMIAELGADMSVFPTDSQLSSWAGVSPGNNESAGKKKEGVFPQETKR | not soluble
17 | TQLQLKDSMEKFGALYHSSSLGMLIVIEREIVDANHRALELLSYKKSDLLEQSLDTLCPTTADECRVDAMYRELQHGRNQFEAQMLDSHGETIDCLIEATLIQHNGHTALMLLLQDLS | not soluble
18 | MSHVTAAPNVLAASAGELAAIGSTMRAANAAAAAPTAGVLAAGGDDVSAGIAALFGARAQAYQAISAQAALFHDRFVQILQEGAAAYAMAEAANALPLQKAQGVVSELAQDRTGGTGTGQSRGAGGFGGVGQAGGKGWDGGPIGNGQVGEQHGAGQLGSTDGNPGVAGAAHGSGVSASHGSGATGAAGVADPGGSGAGVGSAAGNGTGAGSADAVGGAGTGRDIVGSVRGDGGVGMASGDGGLSTGAAGASAEGGLMPGFGGAPWVGGHWGLGGEGHSGAIGGVGEQVAPAVATAPAVSPATTSAVAAESGSTPATKAQAMHATTNPGNAAHQGNPADPGNSARRADGGRDEQLLLLPLTSLRGLRHTLKKLSGLRARNGLLTASGDNASGSGRPWDRDQLLRALGLRPPGHE | not soluble
19 | GPGSMSSLQKINDIEAELARTQKNKATMAHICALKARLAQLKRELIASESKKGGGKGEGFDVQKTGDARIGFIGFPSVGKSTLLSKMTSTHSEVAAYEFTTLTCVPGVVNYRGAKLQMLDLPGIIEGAKDGKGRGRQVIAVARTCSLILIVLDIAKPLQHKLIIERELDGFGIRLNKSPPDIVIRKKDRGGISISSTCPLTHIDQETIKIILGEYRMANADVTFRGDYTADEFIDAIEGNRAYIPAIYVLNKIDQISIEELDIVARIPHNCPISAHHEWNLDGLLECIWDHLNFIRVYTKPKGQVPDYDAPVILKKSPQPSVESFCNRIHRQLIRNYKYAWVWGSSVKHQPQRVGKDHSLDDEDVVQVVKKV | not soluble
20 | MVKRTVATNGDASGAHRAKKMSKTHASHIINAQEDYKHMYLSVQPLDIFCWGTGSMCELGLGPLAKNKEVKRPRLNPFLPRDEAKIISFAVGGMHTLALDEESNVWSWGCNDVGALGRDTSNAKEQLKDMDADDSSDDEDGDLNELESTPAKIPRESFPPLAEGHKVVQLAATDNMSCALFSNGEVYAWGTFRCNEGILGFYQDKIKIQKTPWKVPTFSKYNIVQLAPGKDHILFLDEEGMVFAWGNGQQNQLGRKVMERFRLKTLDPRPFGLRHVKYIASGENHCFALTKDNKLVSWGLNQFGQCGVSEDVEDGALVTKPKRLALPDNVVIRSIAAGEHHSLILSQDGDLYSCGRLDMFEVGIPKDNLPEYTYKDVHGKARAVPLPTKLNNVPKFKSVAAGSHHSVAVAQNGIAYSWGFGETYAVGLGPFEDDTEVPTRIKNTATQDHNIILVGCGGQFSVSGGVKLSDEDAEKRADEMDD | soluble
21 | MSKSENLYSAARELIPGGVNSPVRAFTGVGGTPLFIEKADGAYLYDVDGKAYIDYVGSWGPMVLGHNHPAIRNAVIEAAERGLSFGAPTEMEVKMAQLVTELVPTMDMVRMVNSGTEATMSAIRLARGFTGRDKIIKFEGCYHGHADCLLVKAGSGALTLGQPNSPGVPADFAKYTLTCTYNDLASVRAAFEQYPQEIACIIVEPVAGNMNCVPPLPEFLPGLRALCDEFGALLIIDEVMTGFRVALAGAQDYYGVVPDLTCLGKIIGGGMPVGAFGGRRDVMDALAPTGPVYQAGTLSGNPIAMAAGFACLNEVAQPGVHETLDELTTRLAEGLLEAAEEAGIPLVVNHVGGMFGIFFTDAESVTCYQDVMACDVERFKRFFHMMLDEGVYLAPSAFEAGFMSVAHSMEDINNTIDAARRVFAKL | soluble
